Fold higher affinity for MglA^+/mGppNHp than for MglA^+/GDP data for 1 substance are collected here from paper PMC2910265.

The experiment concerns the target MglA^+ of Thermus thermophilus (Thermus thermophilus). Put plainly: fluorescence polarisation.

Regarding “MglB of Thermus thermophilus (natural protein)”, the fold higher affinity for MglA^+/mGppNHp than for MglA^+/GDP was determined as 60 fold.
